System: MS2 coat protein
Experiment: apparent KD of MS2 coat protein; designed switch direction (-1 OFF switch, 1 ON switch): -1; higher = weaker reporter binding
How it was run: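 Designed RNA switches were transcribed on Illumina chips by stalled E. coli RNA polymerase and titrated with SNAP-549-labelled MS2 coat protein from 0.7 or 1.5 nM, doubling to 3 µM. Step length ran from 0.8–1.5 h at the lowest concentration to 10–20 min at the highest. The apparent KD is the median over clusters for each design, from curve-fitted normalised cluster fluorescence.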

[1] = Eterna round: R95, input ligand: microRNA oligo, concentration not stated
[2] = input ligand: microRNA oligo, concentration not stated

Which results are given for “GAGAAGGUAGGAUAUACGAAGAAAAAGGGUAGAAUAAUAACACAUGAGGAUCACCCAUGUAGAAGGACCAAGAG [Mat - Exclusion 2 - Mod of my Tesla design - D19] (puzzle: Exclusion 2)”?
apparent KD of MS2 coat protein (Eterna round: R95, input ligand: FMN 200 uM): 44.3 nM; apparent KD of MS2 coat protein [1]: 16.7 nM; apparent KD of MS2 coat protein (Eterna round: R95, input ligand: none): 20.4 nM

Which “apparent KD of MS2 coat protein” value (input ligand: FMN 200 uM) does the source give for “ACAAGCUUUUAGAUUUUCAACAUGAGGAUCACCCAUGUUCGUCUUAUGCUCGGGCUUGGGCGGUGUCCGGGUUUGGG [JL TOV1 3.78 sellena mod] (Eterna round: R97, puzzle: Sensor, turn-off variant 1)” here?
The value was 37.1 nM.

And the “apparent KD of MS2 coat protein” value (input ligand: none)?
Its value is 39.2 nM.

With “AGUAACUCAUGAGGAUAUCACAUGAGGAUCACCCAUGUAUAGCGCGCUAUGCUAGUCCUCGUAUAUGAGAAGGUAUGAUAAAUG [JL ViennaUCT Quve mod 3] (Eterna round: R96, puzzle: Exclusion NG 2)” as the sequence, how does the “apparent KD of MS2 coat protein” value (input ligand: FMN 200 uM) read?
Its value is 22 nM.

What about the “apparent KD of MS2 coat protein” value [2] of the same sequence?
Its value is 15.7 nM.

What about the “apparent KD of MS2 coat protein” value (input ligand: none) of the same sequence?
The value was 25.7 nM.

Which “apparent KD of MS2 coat protein” value [2] does the source give for “GGGCUGCGACGCAGCCCAACAAAACAUGAGGAUCACCCAUGUCAGGAUAUACCGAUGCAGCAUCUGUAGAAGGGACAGAUCCAA [Tiraonin] (Eterna round: R96, puzzle: Exclusion NG 3)” here?
The value was 61.9 nM.

“CUCCUGUGAGGAUAUGUAGGCCGCCCGGUCAGCCGAGCGAGACAGAAGGCACAUGAGGAUCACCCAUGUGACUC [EX4 B.13] (Eterna round: R97, puzzle: Exclusion 4)” was tested. Which “apparent KD of MS2 coat protein” value (input ligand: FMN 200 uM) did it give?
Its value is 42.2 nM.

What about the “apparent KD of MS2 coat protein” value (input ligand: none) of the same sequence?
Its value is 16.6 nM.

For “GCGUUCUGAGGAUAUACAUGAGGAUCACCCAUGUUGAGAAUUAUGUAUAAAAGAUUAUGUAGAAGGCAGAGUGC [JR_Ex3_Sub071] (Eterna round: R97, puzzle: Exclusion 3)”, which “apparent KD of MS2 coat protein” value (input ligand: FMN 200 uM) is on record?
The value was 140 nM.

And the “apparent KD of MS2 coat protein” value (input ligand: none)?
Its value is 716 nM.

Which “apparent KD of MS2 coat protein” value (input ligand: FMN 200 uM) does the source give for “UAACUUCUUGUAAGGAUAUUGGCGCGAAAGCGAACCGAGAAGGUACAUGAGGAUCACCCAUGUGAAAUAAGAAU [Mod of Zala 14 - Jieux - Brourd's Mod of Exclusion 4] (Eterna round: R97, puzzle: Brourd's mod of Exclusion 4)” here?
The value was 574 nM.

And the “apparent KD of MS2 coat protein” value (input ligand: none)?
The value was 40.3 nM.

Which “apparent KD of MS2 coat protein” value (input ligand: FMN 200 uM) does the source give for “CUGCUGGAGUUUCGCUUUGGUCGUACAUGAGGAUCACCCAUGUAGGAUAUGGUAAAAUUCGCCUGCUAGAAGGAUAGAGUGGUC [salish99_ExNG3_r04_620] (Eterna round: R96, puzzle: Exclusion NG 3)” here?
Its value is 48.1 nM.

What about the “apparent KD of MS2 coat protein” value [2] of the same sequence?
Its value is 38.6 nM.

What about the “apparent KD of MS2 coat protein” value (input ligand: none) of the same sequence?
The value was 42.3 nM.

How did the “apparent KD of MS2 coat protein” value [1] turn out when “GAGUGACAUGAGGAUCACCCAUGUGAGGAUAUCGGACGGACCUAGUUAACUUCCGCCGCGAGAAGGCACAUCGG [Exclusion 1 V23] (puzzle: Exclusion 1)” was run?
Its value is 70.2 nM.

Which results are given for “GCCGCCGCCUUGGCGGCGGACAUGAGGAUCACCCAUGUCAAGCUUUUGCUCGUCUUAUUUGGCCGGCUUGCCGGCCA [Olib_1] (Eterna round: R97, puzzle: Sensor, turn-off variant 1)”?
apparent KD of MS2 coat protein (input ligand: FMN 200 uM): 24.5 nM; apparent KD of MS2 coat protein (input ligand: none): 26.1 nM

How did the “apparent KD of MS2 coat protein” value [1] turn out when “CGUACUCAAGUGAGGAUAUUGUCUCGGAUACGAAACAAGAAGGCACAUGAGGAUCACCCAUGUAGAGAGUACGA [Malc #30 mod 1] (puzzle: Brourd's mod of Exclusion 4)” was run?
The value was 14.5 nM.

With “ACAUGUCAUCGAGGAUAUUGUACACAUGAGGAUCACCCAUGUACUCGGUUGCUCUAGCAUGAGUUCGAGAAGGCGAUGUACAUU [Ex NG2 #81] (Eterna round: R96, puzzle: Exclusion NG 2)” as the sequence, how does the “apparent KD of MS2 coat protein” value (input ligand: FMN 200 uM) read?
The value was 178 nM.

What about the “apparent KD of MS2 coat protein” value [2] of the same sequence?
The value was 28.9 nM.

What about the “apparent KD of MS2 coat protein” value (input ligand: none) of the same sequence?
Its value is 38.4 nM.

With “UCAUGUUUAGAGGAUAUGAUUACUCUAGAGUGAUCAGAAGGCUAGACAUGAGGAUCACCCAUGUCAGAACAUGU [Exclusion 6 - B - 17:a] (puzzle: Exclusion 6)” as the sequence, how does the “apparent KD of MS2 coat protein” value [1] read?
The value was 24.5 nM.

What does the source list for “GUUUUAUAUGAAGGAUAUACUUAACAUGAGGAUCACCCAUGUGGUGUUGUGAGUGAGUGAGUUUAGUAGAAGGUCAAUGAUUUU [JMF's solution 77] (Eterna round: R96, puzzle: Exclusion NG 2)”?
apparent KD of MS2 coat protein (input ligand: FMN 200 uM): 1660 nM; apparent KD of MS2 coat protein [2]: 396 nM; apparent KD of MS2 coat protein (input ligand: none): 473 nM

With “UACAUGAGGAUCACCCAUGUUUUGUCGUGUAUGGUAUUUAUCUAGGAUAUCAUUCUAUUUAGUUAUGAGAAGGAGAAUAUUAAU [JMF's solution 84] (Eterna round: R96, puzzle: Exclusion NG 3)” as the sequence, how does the “apparent KD of MS2 coat protein” value [2] read?
The value was 21.1 nM.

What does the source list for “CAUUAUUAUCGAGGAUAUCCUAUUGUAAUUCUGGGAGAAGGCGGACUCAACAUGAGGAUCACCCAUGUAAGACGGGUGCUAGAG [Ex NG1 #24] (Eterna round: R96, puzzle: Exclusion NG 1)”?
apparent KD of MS2 coat protein (input ligand: FMN 200 uM): 306 nM; apparent KD of MS2 coat protein [2]: 236 nM; apparent KD of MS2 coat protein (input ligand: none): 276 nM

For “UUUAAUGGAAUUAAGAUCACAUGAGGAUCACCCAUGUAUAUAUAGGAUAUCAGCUCGAUUAGAGCUGAGAAGGAUAUAUACAUA [ExNG3/6-B1] (Eterna round: R96, puzzle: Exclusion NG 3)”, which “apparent KD of MS2 coat protein” value (input ligand: FMN 200 uM) is on record?
Its value is 31.6 nM.

And the “apparent KD of MS2 coat protein” value [2]?
The value was 199 nM.

What about the “apparent KD of MS2 coat protein” value (input ligand: none) of the same sequence?
Its value is 91.6 nM.

With “CUUGUGUAAGGAUAUGCCUGGCCGUGAGGCCAGAUUGAAUAGCAGAAGGUACAUGAGGAUCACCCAUGUACGGG [jl-ex4-4.60 ViennaUCT mod] (Eterna round: R97, puzzle: Exclusion 4)” as the sequence, how does the “apparent KD of MS2 coat protein” value (input ligand: FMN 200 uM) read?
The value was 256 nM.

What about the “apparent KD of MS2 coat protein” value (input ligand: none) of the same sequence?
Its value is 376 nM.

What does the source list for “CAGUACUGAGGAUAUACAUGAGGAUCACCCAUGUGUUCCAGCUAGGAAUCUAGCAAAAGUAGAAGGCAGUACUG [salish99_ex3_r3_094x] (Eterna round: R96, puzzle: Exclusion 3)”?
apparent KD of MS2 coat protein (input ligand: FMN 200 uM): 727 nM; apparent KD of MS2 coat protein [2]: 22.4 nM; apparent KD of MS2 coat protein (input ligand: none): 25.1 nM

With “UAUGGUCUUGAGGAUAUACCAGGGUGAGUCCAGGUAGAAGGUAGGACAUGAGGAUCACCCAUGUGACGUAGUGU [Eternabot (L2) Solution 49] (Eterna round: R97, puzzle: Exclusion 6)” as the sequence, how does the “apparent KD of MS2 coat protein” value (input ligand: FMN 200 uM) read?
The value was 434 nM.

And the “apparent KD of MS2 coat protein” value (input ligand: none)?
Its value is 354 nM.

“UUUUUAUAUGAAGGAUAUACUUAACAUGAGGAUCACCCAUGUGGUGUUGUGAGUGAGUGAGUUUAGUAGAAGGUCAAUUAGUAU [JMF's solution 101] (Eterna round: R96, puzzle: Exclusion NG 2)” was tested. Which “apparent KD of MS2 coat protein” value (input ligand: FMN 200 uM) did it give?
The value was 1110 nM.

What about the “apparent KD of MS2 coat protein” value [2] of the same sequence?
The value was 253 nM.

And the “apparent KD of MS2 coat protein” value (input ligand: none)?
Its value is 295 nM.

For “AAAACACAUGAGGAUCACCCAUGUGAGGAUAUGUUCAUUGUGAGCAAACUUAUGAUGAACAGAAGGCACAUAAA [JR_Exclusion1_Sub017] (puzzle: Exclusion 1)”, which “apparent KD of MS2 coat protein” value [1] is on record?
Its value is 38.9 nM.

For “GCACGGAUUGUAGGAUAUCUGUGCGAUUAGCUCAGAGAAGGACACAUGAGGAUCACCCAUGUUACCUCAAUUGGCCUUCCGUGC [Eli exng1 - 031] (Eterna round: R96, puzzle: Exclusion NG 1)”, which “apparent KD of MS2 coat protein” value (input ligand: FMN 200 uM) is on record?
Its value is 128 nM.

And the “apparent KD of MS2 coat protein” value [2]?
Its value is 70.7 nM.

What about the “apparent KD of MS2 coat protein” value (input ligand: none) of the same sequence?
The value was 116 nM.

Which results are given for “UUUUAACAAGCGAGAUCCUACAUGAGGAUCACCCAUGUAUGUCAUGGUUUCCAUGGUCUUUUUGCUCGUCUUGUGUG [jl TITIN mod 7] (Eterna round: R97, puzzle: Sensor, turn-off variant 1)”?
apparent KD of MS2 coat protein (input ligand: FMN 200 uM): 40.9 nM; apparent KD of MS2 coat protein (input ligand: none): 44.1 nM

Which results are given for “AAAGGGAAUGAGGAUAUCGUAUUGGAUAUAGUGCGAGAAGGCAUUACAUGAGGAUCACCCAUGUUUUGUUGGGA [JR_Ex6_Sub006] (Eterna round: R97, puzzle: Exclusion 6)”?
apparent KD of MS2 coat protein (input ligand: FMN 200 uM): 74.4 nM; apparent KD of MS2 coat protein (input ligand: none): 33.9 nM
